From the supplement of paper PMC12042874
± gives the uncertainty stated by the source.

Assay: amyloid nucleation score (Sup35N fusion, yeast selection) (log enrichment); library NNK3; higher = more nucleation; inactive = no reads after selection
In short: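 Libraries of peptides of 20 random codons fused to Sup35N were expressed in psi-negative yeast and induced 24 hours with 100 μM copper sulfate. Selection was 7 days at 30°C on medium lacking adenine and uracil, and plasmid inserts were Illumina-sequenced before and after selection. Nucleation score is the DiMSum log enrichment of output over input reads, centred on the mode score of non-aggregating sequences, and sequences with under 100 input reads were left out.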
For LQFDYLMIYLVQFSVLWVCL, the amyloid nucleation score was “inactive”.
In the case of EIFVFTM, the amyloid nucleation score is reported as “inactive”.
For VSYGPA, the amyloid nucleation score was “inactive”.
With HSLTGSHSFVGF the amyloid nucleation score was “inactive”.
In the case of KLYLLLLYFLDMTVFWFVAV, the amyloid nucleation score is reported as “inactive”.
In the case of MRAFIRYCIFVCMSAYRNMV, the amyloid nucleation score is reported as -0.352 ± 0.73.
For LLLRLLAWYMMVS, the amyloid nucleation score was “inactive”.
In the case of WQTMPGVRDGCAECEIYWG, the amyloid nucleation score is reported as “inactive”.
Work on AMSTPIGMGEVKFKCFILWL yielded an amyloid nucleation score of 0.56 ± 0.18.
For GYVSALMMIFYYHLWKKGPC, the amyloid nucleation score was “inactive”.
For HNQKSCVYMSEGSWRSL, the amyloid nucleation score was “inactive”.
For GKSTVGMI, the amyloid nucleation score was “inactive”.
MIYYMLWTYWALPKPWNEYI showed an amyloid nucleation score of 0.971 ± 0.16.
In the case of TWEVYTMCIRNGGVLGLFIF, the amyloid nucleation score is reported as “inactive”.
For VWKMRDTKHMGLLWLLWFIE, the amyloid nucleation score was “inactive”.
In the case of TDTTSIMNWEDRPISSLKVD, the amyloid nucleation score is reported as “inactive”.
KLSLMAVNLSWIYFCL showed an amyloid nucleation score of 0.182 ± 0.27.
In the case of VAFVNKCFSD, the amyloid nucleation score is reported as “inactive”.
For YFFFLRICWMDSSLVFGLLS, the amyloid nucleation score was “inactive”.
In the case of AEYQPFRQRHVL, the amyloid nucleation score is reported as “inactive”.
With SFYRMRVIHSLDYAKVKSTL the amyloid nucleation score was 0.772 ± 0.2.
In the case of YCGYNR, the amyloid nucleation score is reported as “inactive”.
With QSWLMPFCLVSSTWKV the amyloid nucleation score was “inactive”.
In the case of IKGQSLSNSVFWSGGLDLRV, the amyloid nucleation score is reported as “inactive”.
For LNVTLIMNRRLFMGTFHLW, the amyloid nucleation score was “inactive”.
For HSRTGLGLHKLRMAVGFCIN, the amyloid nucleation score was “inactive”.
Substance CRLVINNYMSR has an amyloid nucleation score of 2.83 ± 0.065.
SRWPGHNYISQYGGYLLIFY showed an amyloid nucleation score of 2.02 ± 0.071.
In the case of CNMPGLVDDFLCHGICNNVV, the amyloid nucleation score is reported as “inactive”.
In the case of CCLFMLFMRMRTHL, the amyloid nucleation score is reported as “inactive”.
With LLSVTCTG the amyloid nucleation score was “inactive”.
For NLLSSSFLPPGWRSLKLGSS, the amyloid nucleation score was “inactive”.
With SSSCVSSGCDVWA the amyloid nucleation score was “inactive”.
In the case of IPWCSPDGLVRRYHHKR, the amyloid nucleation score is reported as “inactive”.
With VKVEPVRLLWTHVWKS the amyloid nucleation score was “inactive”.
With RILCRVRYM the amyloid nucleation score was “inactive”.
For VWGMMFNMCYRELCLAMTLF, the amyloid nucleation score was “inactive”.
With FWMCVSVSARWAPTSLGFGS the amyloid nucleation score was “inactive”.
Substance IVSVQVVLLYQM has an amyloid nucleation score of 1.12 ± 0.14.
For FASVFVMN, the amyloid nucleation score was “inactive”.
For EYENLYLRVQFSYMLLFLVM, the amyloid nucleation score was -1.33 ± 1.8.
In the case of SLCDSVGSKSVF, the amyloid nucleation score is reported as “inactive”.
With FVRGCSRNSTRDCFYK the amyloid nucleation score was “inactive”.
In the case of IRDASWTKNLEFECLLFKPS, the amyloid nucleation score is reported as “inactive”.
For ASLPVLPSNPDKSEGAKGHE, the amyloid nucleation score was -0.681 ± 1.2.
With FSYVCFGYV the amyloid nucleation score was 0.337 ± 0.14.
For THLSVEFS, the amyloid nucleation score was “inactive”.
In the case of SLDIKPSMRCGRRCVRGRST, the amyloid nucleation score is reported as “inactive”.
With VSLPSVIKYNDS the amyloid nucleation score was “inactive”.
With EPNRVLMKVQYRNSPCYTRR the amyloid nucleation score was “inactive”.
With VACRFHMCLWLGRVLDYAKN the amyloid nucleation score was 1.1 ± 0.14.
CGVSWTVSIITDTFICN gave an amyloid nucleation score of 2.76 ± 0.06.
In the case of NNAVQLYFYRLDMSYA, the amyloid nucleation score is reported as “inactive”.
In the case of TFNRWCLVFLLMHNVLVCEW, the amyloid nucleation score is reported as 0.185 ± 0.33.
In the case of LMKSMSNLLYADLKEYSQVG, the amyloid nucleation score is reported as “inactive”.
For QVGSLFWLRY, the amyloid nucleation score was “inactive”.
VMMFSELGCCVLCGPLKDNM gave an amyloid nucleation score of 1.62 ± 0.06.
For TVLCFSACQENFSSSLRRLY, the amyloid nucleation score was “inactive”.
For DKHMIGLYNPRASIELL, the amyloid nucleation score was “inactive”.
In the case of DPPHWVDFSRFR, the amyloid nucleation score is reported as “inactive”.
In the case of KLHPTYLCNQNPRELWLITY, the amyloid nucleation score is reported as “inactive”.
In the case of LTVRSHHQAGDMCRRRAISP, the amyloid nucleation score is reported as “inactive”.
For LYVYTMR, the amyloid nucleation score was “inactive”.
For LYWMVSMTTDR, the amyloid nucleation score was “inactive”.
With SVILCFSV the amyloid nucleation score was “inactive”.
In the case of VVFGHAFYVTSHKTVLCSFG, the amyloid nucleation score is reported as “inactive”.
In the case of QELLPIRYLVE, the amyloid nucleation score is reported as “inactive”.
In the case of FNWFLRWFNPVCKDALWVEC, the amyloid nucleation score is reported as “inactive”.
With NAVSDTGRKRECFRADRFLS the amyloid nucleation score was “inactive”.
Substance MVFMADK has an amyloid nucleation score of 0.268 ± 0.2.
In the case of VCYNLCRKIPDSLSKIPDRR, the amyloid nucleation score is reported as “inactive”.
With DSLKIR the amyloid nucleation score was “inactive”.
In the case of DYTPGGCRPTTNCLS, the amyloid nucleation score is reported as “inactive”.
For MTFIRPKLGKKPGMYGTNIV, the amyloid nucleation score was “inactive”.
In the case of SFLVSFTGVMLEFNCTCHLA, the amyloid nucleation score is reported as “inactive”.
Work on YFSMIVVGCVNFKELPDNRV yielded an amyloid nucleation score of 1.78 ± 0.086.
In the case of TCTEGMGCPMSKAARVLLTR, the amyloid nucleation score is reported as “inactive”.
For DNLGLFSVVKRSPMLSVTKE, the amyloid nucleation score was “inactive”.
For VSGSEFLDFKQLVYTLDAAC, the amyloid nucleation score was 0.481 ± 0.35.
For RHLPQESKRSSVAAISLM, the amyloid nucleation score was “inactive”.
With RFMFSLFMNEGNMLHMLRRV the amyloid nucleation score was “inactive”.
